# Test results published in US20100137221A1, “PEPTIDES THAT INTERACT WITH TOPOISOMERASE I AND METHODS THEREOF” (UNIVERSITY UTAH RESEARCH FOUNDATION, priority 2007, published 2010).
# Entries after “also recorded” stand apart in the source; their conditions may differ. Where two headings read alike, the source gives them in different places. No end group written: not given here.
# T1: 100 kDa top1 (Homo sapiens, UniProt P11387)
# T1 construct: made in house; host or cells: Sf9 insect cells (baculovirus) or human placenta
# T1 sequence (P11387 1-765): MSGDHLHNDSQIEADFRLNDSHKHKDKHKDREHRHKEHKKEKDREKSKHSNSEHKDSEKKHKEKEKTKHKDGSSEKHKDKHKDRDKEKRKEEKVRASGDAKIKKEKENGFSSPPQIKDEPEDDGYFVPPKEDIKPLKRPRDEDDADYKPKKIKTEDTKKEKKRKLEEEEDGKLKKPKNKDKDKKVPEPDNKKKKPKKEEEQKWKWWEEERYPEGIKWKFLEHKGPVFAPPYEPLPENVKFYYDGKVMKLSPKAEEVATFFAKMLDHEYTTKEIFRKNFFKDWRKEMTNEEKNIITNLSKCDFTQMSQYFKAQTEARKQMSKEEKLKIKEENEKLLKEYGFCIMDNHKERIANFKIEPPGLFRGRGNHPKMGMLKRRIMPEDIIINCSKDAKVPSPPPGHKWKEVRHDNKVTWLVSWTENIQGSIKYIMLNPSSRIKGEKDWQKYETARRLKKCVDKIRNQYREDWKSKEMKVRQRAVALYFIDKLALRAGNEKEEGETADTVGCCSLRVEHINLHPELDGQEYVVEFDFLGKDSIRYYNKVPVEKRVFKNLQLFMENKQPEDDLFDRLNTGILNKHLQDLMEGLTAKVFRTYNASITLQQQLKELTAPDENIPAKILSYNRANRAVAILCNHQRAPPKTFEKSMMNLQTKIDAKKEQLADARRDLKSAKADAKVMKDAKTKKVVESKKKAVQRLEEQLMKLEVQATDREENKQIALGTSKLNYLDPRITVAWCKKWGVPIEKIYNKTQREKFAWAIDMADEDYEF
# T2: top1 (Homo sapiens, UniProt P11387)
# T2 sequence (P11387 1-765): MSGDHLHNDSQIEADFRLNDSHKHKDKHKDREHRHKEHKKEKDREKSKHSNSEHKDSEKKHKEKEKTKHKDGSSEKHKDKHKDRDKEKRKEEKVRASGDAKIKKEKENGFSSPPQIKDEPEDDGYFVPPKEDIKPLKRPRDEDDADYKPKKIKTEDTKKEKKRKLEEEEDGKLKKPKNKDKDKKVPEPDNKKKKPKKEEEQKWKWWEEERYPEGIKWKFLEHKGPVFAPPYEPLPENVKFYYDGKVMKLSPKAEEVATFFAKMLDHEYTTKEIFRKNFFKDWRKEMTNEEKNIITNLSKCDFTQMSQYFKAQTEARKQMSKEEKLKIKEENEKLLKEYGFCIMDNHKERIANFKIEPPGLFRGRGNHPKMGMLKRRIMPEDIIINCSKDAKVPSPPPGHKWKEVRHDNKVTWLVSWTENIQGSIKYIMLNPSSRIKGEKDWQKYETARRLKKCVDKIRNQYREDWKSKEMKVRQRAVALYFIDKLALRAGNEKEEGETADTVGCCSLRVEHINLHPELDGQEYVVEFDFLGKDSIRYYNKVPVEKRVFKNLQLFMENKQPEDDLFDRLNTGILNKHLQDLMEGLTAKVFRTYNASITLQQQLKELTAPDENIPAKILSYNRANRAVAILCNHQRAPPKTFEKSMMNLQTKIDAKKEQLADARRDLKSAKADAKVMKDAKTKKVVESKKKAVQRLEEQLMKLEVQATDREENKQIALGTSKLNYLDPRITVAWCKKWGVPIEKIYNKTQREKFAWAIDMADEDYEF
# T3: T1BP2
# T3 chain: SAYAATVRGPLSSAS
# T4: human topoisomerase I (human, UniProt P11387 1-765, limits assumed)
# T4 construct: also called top1; top 1
# T4 sequence (looked up): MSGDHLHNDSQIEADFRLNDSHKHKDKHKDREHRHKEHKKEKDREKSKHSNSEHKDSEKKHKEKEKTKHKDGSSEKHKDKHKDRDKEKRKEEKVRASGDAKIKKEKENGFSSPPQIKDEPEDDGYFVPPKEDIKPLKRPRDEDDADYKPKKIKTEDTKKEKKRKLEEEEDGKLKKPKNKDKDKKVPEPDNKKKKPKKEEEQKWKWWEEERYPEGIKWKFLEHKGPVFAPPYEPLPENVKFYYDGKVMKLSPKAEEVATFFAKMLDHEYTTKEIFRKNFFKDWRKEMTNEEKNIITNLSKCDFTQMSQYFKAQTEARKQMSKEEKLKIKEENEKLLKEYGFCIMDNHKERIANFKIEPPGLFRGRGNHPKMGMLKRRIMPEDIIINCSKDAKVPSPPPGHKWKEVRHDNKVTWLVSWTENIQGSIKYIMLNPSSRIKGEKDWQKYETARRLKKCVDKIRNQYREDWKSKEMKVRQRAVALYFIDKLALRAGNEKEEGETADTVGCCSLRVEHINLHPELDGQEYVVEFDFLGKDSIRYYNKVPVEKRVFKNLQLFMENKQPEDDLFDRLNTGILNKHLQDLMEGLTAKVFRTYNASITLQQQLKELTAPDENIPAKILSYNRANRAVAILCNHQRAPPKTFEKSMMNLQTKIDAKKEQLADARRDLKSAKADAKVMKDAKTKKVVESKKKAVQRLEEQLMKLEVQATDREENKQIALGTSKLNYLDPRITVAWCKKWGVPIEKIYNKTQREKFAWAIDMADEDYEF
# B1: human topoisomerase I (protein)
# chain: MSGDHLHNDSQIEADFRLNDSHKHKDKHKDREHRHKEHKKEKDREKSKHSNSEHKDSEKKHKEKEKTKHKDGSSEKHKDKHKDRDKEKRKEEKVRASGDAKIKKEKENGFSSPPQIKDEPEDDGYFVPPKEDIKPLKRPRDEDDADYKPKKIKTEDTKKEKKRKLEEEEDGKLKKPKNKDKDKKVPEPDNKKKKPKKEEEQKWKWWEEERYPEGIKWKFLEHKGPVFAPPYEPLPENVKFYYDGKVMKLSPKAEEVATFFAKMLDHEYTTKEIFRKNFFKDWRKEMTNEEKNIITNLSKCDFTQMSQYFKAQTEARKQMSKEEKLKIKEENEKLLKEYGFCIMDNHKERIANFKIEPPGLFRGRGNHPKMGMLKRRIMPEDIIINCSKDAKVPSPPPGHKWKEVRHDNKVTWLVSWTENIQGSIKYIMLNPSSRIKGEKDWQKYETARRLKKCVDKIRNQYREDWKSKEMKVRQRAVALYFIDKLALRAGNEKEEGETADTVGCCSLRVEHINLHPELDGQEYVVEFDFLGKDSIRYYNKVPVEKRVFKNLQLFMENKQPEDDLFDRLNTGILNKHLQDLMEGLTAKVFRTYNASITLQQQLKELTAPDENIPAKILSYNRANRAVAILCNHQRAPPKTFEKSMMNLQTKIDAKKEQLADARRDLKSAKADAKVMKDAKTKKVVESKKKAVQRLEEQLMKLEVQATDREENKQIALGTSKLNYLDPRITVAWCKKWGVPIEKIYNKTQREKFAWAIDMADEDYEF
# B2: T1BP2 (peptide)
# peptide: SAYAATVRGPLSSAS
# notes: Coupled to a CM5 chip for SPR; also called T1PB2; CPP3
# Assays:
# 100 kDa top1 = target: T1, 100 kDa top1; assay: top1-mediated DNA relaxation assay (supercoiled pBR322); type: biochemical; conditions: 1 μM peptide
# Method: Top1 relaxation/cleavage activity assays: Peptides were assayed for their ability to interfere with or enhance relaxation of supercoiled DNA mediated by 100 kDa top1. The top1 and pBR322 were combined in a top1-reaction buffer (150 mM KCl, 12 mM MgCl2, 2 mM EDTA, 50 mM Tris HCl pH 7.5) at 37° C. for 30 minutes with 1 μM peptide. The 20 μl reactions were stopped with 1.0 μl of 1% SDS. Digestion of protein was performed by addition of 1.0 μg proteinase K for 30 minutes at 37° C., loaded with 5 μl of a standard 5×bromphenol blue/glycerol loading buffer and run in an 0.8% agarose gel in TAE (0.04 M Tris-acetate and 1.0 mM EDTA). DNA cleavage assays were performed in 20 μl volumes of reaction buffer (50 mM Tris-HCl (pH 7.5), 100 mM KCl, 10 mM MgCl2 0.5 mM EDTA, 0.2 mg/ml BSA), 500 ng of radiaolabeled (^3H thymidine) supercoiled rf (replicative form) M13 mp 19 DNA and 112 ng of top1. The reactions were incubated for 30 minutes at 30° C. and then treated with 1 μl of 1 mg/ml proteinase K in 0.05% SDS for an additional 30 minutes at 37° C. to transform the 9AC-top1-DNA complexes into nicked DNA. This was followed by electrophoresis in an 0.8% agarose-TAE gel containing ethidium bromide. […] Percent cleavage was determined by liquid scintillation counting of excised bands using the method described by Marshall et al. (Marshall 2003).
# top1 [1] = target: T2, top1; conditions: surface plasmon resonance
# top1 [2] = target: T2, top1; assay: Biosensor binding specificity, top1 versus topoisomerase II and tubulin over T1BP2 surface; set-up: made in house; host or cells: Sf9 insect cells (baculovirus) or human placenta; conditions: 8.0 nM of each protein injected over T1BP2 channel
# Method: (§1) These top1 experiments were evaluated with BIAevaluation Software 3.1 using Langmuir Kinetics to model the interaction. The accuracy of the fit to the model is illustrated by dashed lines representing actual data and narrow lines representing the fitted curves.
# top1 [3] = target: T2, top1; assay: DNA cleavage complex assay with 9AC; type: biochemical; set-up: made in house; host or cells: Sf9 insect cells (baculovirus) or human placenta
# Method: Top1 relaxation/cleavage activity assays: Peptides were assayed for their ability to interfere with or enhance relaxation of supercoiled DNA mediated by 100 kDa top1. The top1 and pBR322 were combined in a top1-reaction buffer (150 mM KCl, 12 mM MgCl2, 2 mM EDTA, 50 mM Tris HCl pH 7.5) at 37° C. for 30 minutes with 1 μM peptide. The 20 μl reactions were stopped with 1.0 μl of 1% SDS. Digestion of protein was performed by addition of 1.0 μg proteinase K for 30 minutes at 37° C., loaded with 5 μl of a standard 5×bromphenol blue/glycerol loading buffer and run in an 0.8% agarose gel in TAE (0.04 M Tris-acetate and 1.0 mM EDTA). […] The reactions were incubated for 30 minutes at 30° C. and then treated with 1 μl of 1 mg/ml proteinase K in 0.05% SDS for an additional 30 minutes at 37° C. to transform the 9AC-top1-DNA complexes into nicked DNA. This was followed by electrophoresis in an 0.8% agarose-TAE gel containing ethidium bromide. A control set of experiments and log serial dilutions of peptide were examined for each peptide. Percent cleavage was determined by liquid scintillation counting of excised bands using the method described by Marshall et al. (Marshall 2003).
# T1BP2 = target: T3, T1BP2
# human topoisomerase I [4] = target: T4, human topoisomerase I; assay: SPR (BIAcore 2000), T1BP2 on CM5 chip, top1 as analyte, Langmuir model
# Method: (§2) Binding analysis: The binding analysis of the peptides was performed on a BIAcore 2000 instrument. A four channel CM5 sensor chip was derivatized with three top1 binding peptides (T1BPs 1, 2 and 4) and a control surface left blank. Catalytically active top1 was used as the mobile or analyte phase and diluted in 150 mM NaCl, 30 mM HEPES, 0.05% P20 and injected at various concentrations (8.0, 4.0, 2.0, 1.0 and 0.4 nM) through the instrument's microfluidics sample handling system at a flow rate of 30 μl/minute. With each injection of a particular concentration of top1, association and dissociation data for three peptides were generated. Binding constants were determined using the BIAevaluation 2.1 software.
# T1BP2 affinity for top1: T1BP2 had remarkable affinity for top1 when assayed by surface plasmon resonance (FIG. 2a).
# human topoisomerase I [5] = target: T4, human topoisomerase I; assay: SPR (BIAcore), T1BP2 on the chip, top1 as analyte, Langmuir model [cont'd) B]
# Method: as §1, §2
# human topoisomerase I [6] = target: T4, human topoisomerase I; assay: SPR (BIAcore), 100 kDa top1 applied at 1, 2.5, 5, 10 and 20 nM to the CPP1 flow cell, global fit [left panel]
# Method: Top 1 was applied to flow cells in 1, 2.5, 5, 10 and 20 nM concentrations. The overlaying curves represent the actual data for a given concentration of top 1 and the “fit” curves. Data were fit using the BIAeval 3000 global fitting software.
molecule,measurement,setting,value
"SAYAATVRGPLSSAS [T1BP2, SAYAATVRGPLSSAS]",effect on top1-mediated DNA relaxation,100 kDa top1,slight ability to inhibit top1-mediated relaxation; also recorded: Inhibition of top1 relaxation (slight increase in supercoiled DNA remaining)
same,affinity for top1 (in words),top1 [1],high nanomolar affinity
same,affinity for top1 (in words),top1 [1]; listed as T1PB2,mid-nanomolar affinity
same,binding specificity for top1 verses topoisomerase II and tubulin,top1 [2],specificity for top1
same,effect on cleavage (in words),"top1 [3]; 0.45 μM 9AC, 20 ng top1",increase in cleavage at all but one concentration
same,increase in cleavage complex formation,"top1 [3]; 0.45 μM and 0.9 μM 9AC, through the range of peptide concentrations tested",approximately 50%
B1,cleavage complex formation (top1-DNA-9AC cleavage assay),T1BP2,T1BP2 increased cleavage complex formation approximately 50%
B2,Kd,human topoisomerase I [4],665 nM
same,Ka,human topoisomerase I [5],1.5e+06 M⁻¹
same,kd (s-1) (observed) at [Top1] 0.4 nM,human topoisomerase I [5],0.0028 s⁻¹
same,kd (s-1) (observed) at [Top1] 1.0 nM,human topoisomerase I [5],0.0028 s⁻¹
same,kd (s-1) (observed) at [Top1] 2.0 nM,human topoisomerase I [5],0.00281 s⁻¹
same,kd (s-1) (observed) at [Top1] 4.0 nM,human topoisomerase I [5],0.00282 s⁻¹
same,kd (s-1) (observed) at [Top1] 8.0 nM,human topoisomerase I [5],0.00283 s⁻¹
same,koff,human topoisomerase I [5],0.0028 s⁻¹
same,kon,human topoisomerase I [5],4210 M⁻¹ s⁻¹
LAVRRYALGNGYDWS [CPP1],binding result,human topoisomerase I [6],binds
